Laboratory results: PMC3513293 (PLoS ONE, 2012)

What was measured:
[1] = target: the molecule itself; assay: SEC; Superose 6 10/300 GL in PBS with 5 mM β-mercaptoethanol and 0.005% p20; calibrated with thyroglobulin, ferritin, lactate dehydrogenase and BSA
[2] = target: T1, p97/Valosin-containing protein (VCP), full length (UniProt P55072 1-806); assay: SPR; Biacore 3000; p97/VCP immobilised on CM5 by amine coupling; two-fold dilution series of p47 (from 1.92 μM) or UN (from 1.88 μM) injected at 30 μl/min, 25°C, PBS with 5 mM β-mercaptoethanol and 0.005% p20; no nucleotide; Langmuir 1:1 fit (p47) or Interaction Map Analysis (UN); conditions: both partners purified
T1 construct: Homohexamer by gel filtration and DLS; also called p97/VCP; full length p97; source: E. coli Rosetta DE3, purified (nickel IMAC, Superose 6 gel filtration; hexameric 13.5 ml fraction)

[3] = target: T1, p97/Valosin-containing protein (VCP), …; assay: SPR; Biacore 3000; p47 immobilised on CM5 by amine coupling; p97/VCP injected, 30 μl/min, 25°C, PBS; Langmuir 1:1 fit; conditions: both partners purified

T1 sequence (P55072 whole entry): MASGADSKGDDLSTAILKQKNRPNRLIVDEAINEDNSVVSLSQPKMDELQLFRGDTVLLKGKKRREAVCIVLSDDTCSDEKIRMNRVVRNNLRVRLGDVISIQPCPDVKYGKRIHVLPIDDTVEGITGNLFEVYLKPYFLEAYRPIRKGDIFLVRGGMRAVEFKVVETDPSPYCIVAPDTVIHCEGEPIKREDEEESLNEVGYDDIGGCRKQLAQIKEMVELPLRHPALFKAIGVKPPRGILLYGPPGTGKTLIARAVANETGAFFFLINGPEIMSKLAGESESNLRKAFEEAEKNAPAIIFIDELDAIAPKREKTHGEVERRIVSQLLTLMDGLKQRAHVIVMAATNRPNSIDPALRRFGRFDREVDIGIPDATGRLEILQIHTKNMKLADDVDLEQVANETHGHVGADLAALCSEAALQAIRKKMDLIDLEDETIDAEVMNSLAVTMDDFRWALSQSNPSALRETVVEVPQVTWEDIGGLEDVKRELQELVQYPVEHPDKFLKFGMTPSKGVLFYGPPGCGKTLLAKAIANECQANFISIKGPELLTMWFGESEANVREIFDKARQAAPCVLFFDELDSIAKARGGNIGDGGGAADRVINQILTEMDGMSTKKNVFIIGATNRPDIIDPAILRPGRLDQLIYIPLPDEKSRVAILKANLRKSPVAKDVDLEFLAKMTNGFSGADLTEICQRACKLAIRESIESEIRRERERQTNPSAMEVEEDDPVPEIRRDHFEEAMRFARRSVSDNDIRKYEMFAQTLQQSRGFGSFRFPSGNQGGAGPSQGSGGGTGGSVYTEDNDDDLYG

Kd [2]: ~5000 nM
Kd [3]: 31.3 nM
B1: p47 (natural protein, UniProt O35987 1-370, looked up)
chain: MAEERQDALREFVAVTGAEEDRARFFLESAGWDLQIALASFYEDGGDEDIVTISQATPSSVSRGTAPSDNRVTSFRDLIHDQDEEEEEEEGQRFYAGGSERSGQQIVGPPRKKSPNELVDDLFKGAKEHGAVAVERVTKSPGETSKPRPFAGGGYRLGAAPEEESAYVAGERRRHSGQDVHVVLKLWKTGFSLDNGDLRSYQDPSNAQFLESIRRGEVPAELRRLAHGGQVNLDMEDHRDEDFVKPKGAFKAFTGEGQKLGSTAPQVLNTSSPAQQAENEAKASSSILINEAEPTTNIQIRLADGGRLVQKFNHSHRISDIRLFIVDARPAMAATSFVLMTTFPNKELADENQTLKEANLLNAVIVQRLT
notes: p47, adaptor protein of p97/VCP; Homotrimer by gel filtration; the printed list of Addgene numbers (17229,21266,21267,21268) has one number more than the three plasmids named, so 21268 may be p47; source: E. coli Rosetta DE3, purified (nickel IMAC, Superose 6 gel filtration; 16.25 ml fraction)
stoichiometry N [1]: 3
